Experimental data from patent US20030138894A1 (Human Genome Sciences, published 2003).
Positions of bridges follow the written chain, without caps; N, C: chain ends. No end group written: not given here.

B1: ACE-2 binding polypeptide FSPCKALRHSPWWVCPSG (peptide)
peptide: FSPCKALRHSPWWVCPSG
modifications: not fully specified (N-terminus, C-terminus, bridges); cysteine pairing not given here
B2: ACE-2 binding polypeptide DQNCFAMYCFEF (peptide)
peptide: DQNCFAMYCFEF
modifications: not fully specified (N-terminus, C-terminus, bridges); cysteine pairing not given here
B3: ACE-2 binding polypeptide EGNCFLIGPWCFEF (peptide)
peptide: EGNCFLIGPWCFEF
modifications: not fully specified (N-terminus, C-terminus, bridges); cysteine pairing not given here
B4: ACE-2 binding polypeptide YEDCIGHALFCMTF (peptide)
peptide: YEDCIGHALFCMTF
modifications: not fully specified (N-terminus, C-terminus, bridges); cysteine pairing not given here
B5: ACE-2 binding polypeptide YDNCLGLANLNFCFDF (peptide)
peptide: YDNCLGLANLNFCFDF
modifications: not fully specified (N-terminus, C-terminus, bridges); cysteine pairing not given here
B6: ACE-2 binding polypeptide DDHCEWASYWKWDLCLHD (peptide)
peptide: DDHCEWASYWKWDLCLHD
modifications: not fully specified (N-terminus, C-terminus, bridges); cysteine pairing not given here
B7: ACE-2 binding polypeptide DDDCGWIGFANFHLCLHG (peptide)
peptide: DDDCGWIGFANFHLCLHG
modifications: not fully specified (N-terminus, C-terminus, bridges); cysteine pairing not given here

These binders were tested against T1, FLAG-tagged ACE-2 target (human, UniProt Q9BYF1 18-740) (assay: phage ELISA on FLAG-ACE-2).
T1 construct: range 1-740; obtained from Human Genome Sciences, Inc; also called FLAG-ACE-2; tagged human ACE-2; not shown: FLAG tag
Protocol: Phage enriched from the third round of selection were screened by ELISA for strong ACE-2 binders. Immulon 2 96-well plates (Dynatech) were coated with streptavidin for 1 hour at 37° C. and subsequently coated with anti-FLAG antibody for 1 hour at room temperature. Half of the plates were further coated with FLAG-ACE-2 as the target plates, and the other half of the plates were coated with FLAG peptide as background plates. The amount of each protein or peptide coated was 100 ng per well. The coated plates were then incubated for 1 hour at room temperature with 1:2 diluted overnight phage cultures that were made by inoculating phage from individual plaques into bacterial host cells. After being washed 7 times with PBST, the plates were incubated with HRP-conjugated anti-M13 antibody (Pharmacia) for 1 hour at room temperature, washed 5 times, developed with TMB peroxidase substrate solution (Kirkegaad & Perry Laboratories, Gaithersburg, Md.), and read at 630 nm on an ELISA plate reader.

T1 sequence (Q9BYF1 18-740 limits assumed): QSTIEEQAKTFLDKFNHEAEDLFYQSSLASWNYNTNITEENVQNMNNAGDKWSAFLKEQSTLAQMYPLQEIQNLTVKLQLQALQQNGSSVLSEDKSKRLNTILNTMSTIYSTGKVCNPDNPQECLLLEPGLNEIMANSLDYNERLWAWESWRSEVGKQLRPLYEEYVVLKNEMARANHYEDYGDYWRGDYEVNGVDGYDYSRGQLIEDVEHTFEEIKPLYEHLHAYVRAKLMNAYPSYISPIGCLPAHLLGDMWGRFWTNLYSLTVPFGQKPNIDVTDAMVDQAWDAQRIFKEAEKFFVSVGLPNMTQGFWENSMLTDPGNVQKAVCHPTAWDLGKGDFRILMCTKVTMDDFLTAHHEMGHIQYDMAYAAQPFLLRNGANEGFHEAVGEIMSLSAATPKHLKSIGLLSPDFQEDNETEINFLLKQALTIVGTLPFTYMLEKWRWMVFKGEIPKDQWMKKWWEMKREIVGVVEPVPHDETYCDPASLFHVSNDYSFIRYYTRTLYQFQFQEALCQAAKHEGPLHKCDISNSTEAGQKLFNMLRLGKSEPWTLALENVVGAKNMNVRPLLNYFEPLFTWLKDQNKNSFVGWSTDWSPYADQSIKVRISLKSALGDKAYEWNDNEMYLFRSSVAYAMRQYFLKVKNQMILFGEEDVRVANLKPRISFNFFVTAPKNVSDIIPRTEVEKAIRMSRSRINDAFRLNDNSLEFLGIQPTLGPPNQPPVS

**Q.** Does NPECGALFCMEF (not fully specified (bridges); cysteine pairing not given here) [ACE-2 binding polypeptide NPECGALFCMEF] bind?
**A.** binds

**Q.** Does B1 bind?
**A.** binds

**Q.** Does DFGCNAMFCVEF (not fully specified (bridges); cysteine pairing not given here) [ACE-2 binding polypeptide DFGCNAMFCVEF] bind?
**A.** binds

**Q.** Does B2 bind?
**A.** binds

**Q.** Does NDYCTVFTGALFCLDF (disulfide 4-13 (inferred); not fully specified (N-terminus, C-terminus)) [ACE-2 binding polypeptide NDYCTVFTGALFCLDF] bind?
**A.** binds

**Q.** Does PNQCGVDIWALFCVDF (not fully specified (bridges); cysteine pairing not given here) [ACE-2 binding polypeptide PNQCGVDIWALFCVDF] bind?
**A.** binds

**Q.** Does B3 bind?
**A.** binds

**Q.** Does HIECEEWGYWCIEM (not fully specified (bridges); cysteine pairing not given here) [ACE-2 binding polypeptide HIECEEWGYWCIEM] bind?
**A.** binds

**Q.** Does WEDCLWIGMMCVEF (not fully specified (bridges); cysteine pairing not given here) [ACE-2 binding polypeptide WEDCLWIGMMCVEF] bind?
**A.** binds

**Q.** Does B4 bind?
**A.** binds

**Q.** Does DDKCFGWAHFCFDF (not fully specified (bridges); cysteine pairing not given here) [ACE-2 binding polypeptide DDKCFGWAHFCFDF] bind?
**A.** binds

**Q.** Does GGQCGTSYLFCIDF (not fully specified (bridges); cysteine pairing not given here) [ACE-2 binding polypeptide GGQCGTSYLFCIDF] bind?
**A.** binds

**Q.** Does YSGCADMYMFCIDF (not fully specified (bridges); cysteine pairing not given here) [ACE-2 binding polypeptide YSGCADMYMFCIDF] bind?
**A.** binds

**Q.** Does KFECMPSSLFCVDF (not fully specified (bridges); cysteine pairing not given here) [ACE-2 binding polypeptide KFECMPSSLFCVDF] bind?
**A.** binds

**Q.** Does DDYCFNISSYSYCFDF (not fully specified (bridges); cysteine pairing not given here) [ACE-2 binding polypeptide DDYCFNISSYSYCFDF] bind?
**A.** binds

**Q.** Does LHDCFIYADYEYCFDF (not fully specified (bridges); cysteine pairing not given here) [ACE-2 binding polypeptide LHDCFIYADYEYCFDF] bind?
**A.** binds

**Q.** Does NHHCLEFSSFEYCFDF (not fully specified (bridges); cysteine pairing not given here) [ACE-2 binding polypeptide NHHCLEFSSFEYCFDF] bind?
**A.** binds

**Q.** Does DNLCMSGGSFDYCFDF (not fully specified (bridges); cysteine pairing not given here) [ACE-2 binding polypeptide DNLCMSGGSFDYCFDF] bind?
**A.** binds

**Q.** Does SDYCVGNNAVTYCFDF (not fully specified (bridges); cysteine pairing not given here) [ACE-2 binding polypeptide SDYCVGNNAVTYCFDF] bind?
**A.** binds

**Q.** Does NLDCIYLQNHSYCFDF (not fully specified (bridges); cysteine pairing not given here) [ACE-2 binding polypeptide NLDCIYLQNHSYCFDF] bind?
**A.** binds

**Q.** Does DDDCMMLPLTMFCFDF (not fully specified (bridges); cysteine pairing not given here) [ACE-2 binding polypeptide DDDCMMLPLTMFCFDF] bind?
**A.** binds

**Q.** Does B5 bind?
**A.** binds

**Q.** Does HLDCYNLVDNMFCFDF (not fully specified (bridges); cysteine pairing not given here) [ACE-2 binding polypeptide HLDCYNLVDNMFCFDF] bind?
**A.** binds

**Q.** Does NWNCLGTNELQFCLDF (not fully specified (bridges); cysteine pairing not given here) [ACE-2 binding polypeptide NWNCLGTNELQFCLDF] bind?
**A.** binds

**Q.** Does YFACTNNDSYLFCLDF (not fully specified (bridges); cysteine pairing not given here) [ACE-2 binding polypeptide YFACTNNDSYLFCLDF] bind?
**A.** binds

**Q.** Does YNFCMLIGERDYCLDF (not fully specified (bridges); cysteine pairing not given here) [ACE-2 binding polypeptide YNFCMLIGERDYCLDF] bind?
**A.** binds

**Q.** Does DDVCYSLIMADYCLDF (not fully specified (bridges); cysteine pairing not given here) [ACE-2 binding polypeptide DDVCYSLIMADYCLDF] bind?
**A.** binds

**Q.** Does B6 bind?
**A.** binds

**Q.** Does DDVCENADFAWLGWCMHF (not fully specified (bridges); cysteine pairing not given here) [ACE-2 binding polypeptide DDVCENADFAWLGWCMHF] bind?
**A.** binds

**Q.** Does B7 bind?
**A.** binds

**Q.** Does FDDCQTSWFQGFWLCIDD (not fully specified (bridges); cysteine pairing not given here) [ACE-2 binding polypeptide FDDCQTSWFQGFWLCIDD] bind?
**A.** binds

**Q.** Does FHDCSWGPWGPWEICTRL (not fully specified (bridges); cysteine pairing not given here) [ACE-2 binding polypeptide FHDCSWGPWGPWEICTRL] bind?
**A.** binds

**Q.** Does SNDCVWLQFWGGDMCFLP (not fully specified (bridges); cysteine pairing not given here) [ACE-2 binding polypeptide SNDCVWLQFWGGDMCFLP] bind?
**A.** binds

**Q.** Does NADCEWVNFNHVDLCMWN (not fully specified (bridges); cysteine pairing not given here) [ACE-2 binding polypeptide NADCEWVNFNHVDLCMWN] bind?
**A.** binds

**Q.** Does GSDCEWVNFTMFQMCISN (not fully specified (bridges); cysteine pairing not given here) [ACE-2 binding polypeptide GSDCEWVNFTMFQMCISN] bind?
**A.** binds

**Q.** Does AWDCEWNLFDSTFFCPGF (not fully specified (bridges); cysteine pairing not given here) [ACE-2 binding polypeptide AWDCEWNLFDSTFFCPGF] bind?
**A.** binds

**Q.** Does LYECEWKQFGPVEMCLNF (not fully specified (bridges); cysteine pairing not given here) [ACE-2 binding polypeptide LYECEWKQFGPVEMCLNF] bind?
**A.** binds

**Q.** Does NRECHALFCMDF (disulfide 4-9 (inferred); not fully specified (N-terminus, C-terminus)) [ACE-2 binding polypeptide NRECHALFCMDF] bind?
**A.** binds
